Test results as given in FireProtDB.
Several values for one entry are separate records, joined by “and”; a condition that tells them apart may be missing. Identical values can stand only once.

Conditions: whole UniProt chain shown
[1] = Aspergillus oryzae (strain ATCC 42149 / RIB 40), pH 5.5, Thermal, Absorbance, MES 50 mM, reversible: yes
[2] = Aspergillus oryzae (strain ATCC 42149 / RIB 40), pH 5.5, Thermal, DSC, Potassium acetate 15 mM
[3] = Aspergillus oryzae (strain ATCC 42149 / RIB 40), pH 5.5, Thermal, DSC, Potassium acetate 50 mM, reversible: yes
[4] = Aspergillus oryzae (strain ATCC 42149 / RIB 40), pH 5.5, Thermal, DSC, acetate 30 mM
[5] = Aspergillus oryzae (strain ATCC 42149 / RIB 40), pH 5.5, Thermal, DSC, sodium acetate 10 mM, KCl 100 mM, reversible: yes
[6] = Aspergillus oryzae (strain ATCC 42149 / RIB 40), pH 6, Thermal, Absorbance, MES 0.05 M, reversible: no
[7] = Aspergillus oryzae (strain ATCC 42149 / RIB 40), pH 6, Thermal, CD, MES 10 mM, KCl 0.1 M
[8] = Aspergillus oryzae (strain ATCC 42149 / RIB 40), pH 6, Thermal, DSC, Sodium phosphate 50 mM, NaCl 200 mM, reversible: yes
[9] = Aspergillus oryzae (strain ATCC 42149 / RIB 40), pH 6.35, 25 °C, Urea, Absorbance, Glycinamide 0.1 M
[10] = Aspergillus oryzae (strain ATCC 42149 / RIB 40), pH 6.8, Thermal, DSC, phosphate 10 mM, reversible: no
[11] = Aspergillus oryzae (strain ATCC 42149 / RIB 40), pH 7, 20 °C, GdnHCl, CD, Mops 50 mM
[12] = Aspergillus oryzae (strain ATCC 42149 / RIB 40), pH 7, 20 °C, GdnHCl, Fluorescence, Mops 50 mM
[13] = Aspergillus oryzae (strain ATCC 42149 / RIB 40), pH 7, 20 °C, GdnHCl, SAXS, Mops 50 mM
[14] = Aspergillus oryzae (strain ATCC 42149 / RIB 40), pH 7, Thermal, Absorbance, phosphate 0.03 M
[15] = Aspergillus oryzae (strain ATCC 42149 / RIB 40), pH 7, Thermal, CD, MOPS 20 mM, reversible: Yes (>90%)
[16] = Aspergillus oryzae (strain ATCC 42149 / RIB 40), pH 7, Thermal, CD, Sodium cacodylate 50 mM, reversible: yes
[17] = Aspergillus oryzae (strain ATCC 42149 / RIB 40), pH 7, Thermal, DSC, MES 30 mM, reversible: yes
[18] = Aspergillus oryzae (strain ATCC 42149 / RIB 40), pH 7, Thermal, DSC, bis-Tris-HCl 50 mM, reversible: yes
[19] = Aspergillus oryzae (strain ATCC 42149 / RIB 40), pH 7, Thermal, Fluorescence, MOPS 30 mM, NaCl 0.1 M, reversible: yes
[20] = Aspergillus oryzae (strain ATCC 42149 / RIB 40), pH 7, Thermal, Fluorescence, MOPS 30 mM
[21] = Aspergillus oryzae (strain ATCC 42149 / RIB 40), pH 7.05, 25 °C, Urea, Absorbance, Glycinamide 0.1 M
[22] = Aspergillus oryzae (strain ATCC 42149 / RIB 40), pH 7.1, Thermal, Absorbance, None, reversible: Yes (>90%)
[23] = Aspergillus oryzae (strain ATCC 42149 / RIB 40), pH 7.1, Thermal, CD, None, reversible: Yes (>90%)
[24] = Aspergillus oryzae (strain ATCC 42149 / RIB 40), pH 7.4, Thermal, CD, PBS
[25] = Aspergillus oryzae (strain ATCC 42149 / RIB 40), pH 8, 25 °C, GdnHCl, CD, Sodium phosphate 50 mM, NaCl 25 mM, reversible: Yes

B1: Guanyl-specific ribonuclease T1 wild type, P00651 (protein)
chain: MMYSKLLTLTTLLLPTALALPSLVERACDYTCGSNCYSSSDVSTAQAAGYQLHEDGETVGSNSYPHKYNNYEGFDFSVSSPYYEWPILSSGDVYSGGSPGADRVVFNENNQLAGVITHTGASGNNFVECT
**Q.** For B1, which Tm [1] is on record?
**A.** The Tm was 58 °C.

**Q.** And the “unfolding enthalpy (van 't Hoff)” value [1]?
**A.** Its value is 103 kcal/mol.

**Q.** What about the Tm [2] of the same protein?
**A.** The Tm was 62 °C.

**Q.** What about the “unfolding enthalpy (calorimetric)” value [2] of the same protein?
**A.** Its value is 109 kcal/mol.

**Q.** What about the “unfolding enthalpy (van 't Hoff)” value [2] of the same protein?
**A.** Its value is 110 kcal/mol.

**Q.** And the Tm [3]?
**A.** The Tm was 60.9 °C.

**Q.** And the “heat capacity change of unfolding” value [3]?
**A.** Its value is 1 kcal/mol/K.

**Q.** And the “unfolding enthalpy (calorimetric)” value [3]?
**A.** Its value is 99.1 kcal/mol.

**Q.** What about the Tm [4] of the same protein?
**A.** Its Tm is 64 °C.

**Q.** And the “heat capacity change of unfolding” value [4]?
**A.** The value was 1.24 kcal/mol/K.

**Q.** What about the “unfolding enthalpy (calorimetric)” value [4] of the same protein?
**A.** Its value is 116 kcal/mol.

**Q.** What about the Tm [5] of the same protein?
**A.** The Tm was 60.7 °C.

**Q.** What about the “unfolding enthalpy (calorimetric)” value [5] of the same protein?
**A.** Its value is 107 kcal/mol.

**Q.** And the unfolding free energy (Aspergillus oryzae (strain ATCC 42149 / RIB 40), pH 6, 25 °C, Thermal, CD, MES 10 mM, KCL 0.1 M)?
**A.** The unfolding free energy was 9.3 kcal/mol.

**Q.** And the Tm [6]?
**A.** Its Tm is 51.9 °C.

**Q.** What about the “unfolding enthalpy (van 't Hoff)” value [6] of the same protein?
**A.** Its value is 97.5 kcal/mol.

**Q.** And the Tm (Aspergillus oryzae (strain ATCC 42149 / RIB 40), pH 6, Thermal, Absorbance, Sodium acetate 30 mM, NaCl 0.10 M, reversible: yes)?
**A.** The Tm was 61.6 °C.

**Q.** And the Tm [7]?
**A.** Its Tm is 59.6 °C.

**Q.** What about the “unfolding enthalpy (van 't Hoff)” value [7] of the same protein?
**A.** The value was 112 kcal/mol.

**Q.** And the Tm [8]?
**A.** Its Tm is 63.7 °C.

**Q.** And the “heat capacity change of unfolding” value [8]?
**A.** The value was 1.3 kcal/mol/K.

**Q.** And the “unfolding enthalpy (calorimetric)” value [8]?
**A.** The value was 114 kcal/mol.

**Q.** And the Tm (Aspergillus oryzae (strain ATCC 42149 / RIB 40), pH 6, Thermal, DSC, citrate 20 mM, NaCl 55 mM, reversible: yes)?
**A.** Its Tm is 65 °C.

**Q.** And the Tm (Aspergillus oryzae (strain ATCC 42149 / RIB 40), pH 6, Thermal, DSC, phosphate, reversible: yes(>90%))?
**A.** The Tm was 63.2 °C.

**Q.** What about the denaturant m value [9] of the same protein?
**A.** Its denaturant m value is 1.49 kcal/mol/M.

**Q.** What about the “denaturant midpoint (higher = more stable)” value (“denaturant midpoint” below) [9] of the same protein?
**A.** Its value is 7.16 M.

**Q.** What about the unfolding free energy (Aspergillus oryzae (strain ATCC 42149 / RIB 40), pH 6.45, 26 °C, GdnHCl, CD, Sodium phosphate 10 mM, KCl 0.1 M, reversible: yes) of the same protein?
**A.** Its unfolding free energy is 14.4 kcal/mol.

**Q.** What about the Tm [10] of the same protein?
**A.** Its Tm is 63.8 °C.

**Q.** What about the “unfolding enthalpy (calorimetric)” value [10] of the same protein?
**A.** Its value is 114 kcal/mol.

**Q.** And the unfolding free energy (Aspergillus oryzae (strain ATCC 42149 / RIB 40), pH 7, 0 °C, Urea, Fluorescence, MOPS 30 mM, NaCl 0.1 M, reversible: yes)?
**A.** The unfolding free energy was 1.31 kcal/mol.

**Q.** What about the unfolding free energy (Aspergillus oryzae (strain ATCC 42149 / RIB 40), pH 7, 2 °C, Urea, Fluorescence, MOPS 30 mM, NaCl 0.1 M, reversible: yes) of the same protein?
**A.** The unfolding free energy was 1.2 kcal/mol.

**Q.** What about the unfolding free energy (Aspergillus oryzae (strain ATCC 42149 / RIB 40), pH 7, 5 °C, Urea, Fluorescence, MOPS 30 mM, NaCl 0.1 M, reversible: yes) of the same protein?
**A.** Its unfolding free energy is 0.85 kcal/mol.

**Q.** And the denaturant m value [11]?
**A.** Its denaturant m value is 2.3 kcal/mol/M.

**Q.** What about the “denaturant midpoint” value [11] of the same protein?
**A.** The value was 2.6 M.

**Q.** And the denaturant m value [12]?
**A.** The denaturant m value was 1.9 kcal/mol/M and 1.8 kcal/mol/M.

**Q.** And the “denaturant midpoint” value [12]?
**A.** The value was 2.6 M and 2.3 M.

**Q.** What about the denaturant m value [13] of the same protein?
**A.** Its denaturant m value is 1.9 kcal/mol/M.

**Q.** And the “denaturant midpoint” value [13]?
**A.** Its value is 2.5 M.

**Q.** What about the unfolding free energy (Aspergillus oryzae (strain ATCC 42149 / RIB 40), pH 7, 25 °C, Urea, Fluorescence, MOPS 30 mM, reversible: yes) of the same protein?
**A.** Its unfolding free energy is 5.5 kcal/mol.

**Q.** And the “unfolding enthalpy (van 't Hoff)” value [14]?
**A.** The value was 115 kcal/mol and 112 kcal/mol and 104 kcal/mol.

**Q.** What about the unfolding free energy [14] of the same protein?
**A.** The unfolding free energy was 8.8 kcal/mol and 8 kcal/mol.

**Q.** What about the Tm [15] of the same protein?
**A.** Its Tm is 61.7 °C.

**Q.** And the “unfolding enthalpy (van 't Hoff)” value [15]?
**A.** The value was 112 kcal/mol.

**Q.** And the Tm [16]?
**A.** Its Tm is 52.5 °C.

**Q.** What about the “unfolding enthalpy (van 't Hoff)” value [16] of the same protein?
**A.** The value was 97.7 kcal/mol.

**Q.** What about the Tm [17] of the same protein?
**A.** The Tm was 53.3 °C.

**Q.** What about the “heat capacity change of unfolding” value [17] of the same protein?
**A.** The value was 1.6 kcal/mol/K.

**Q.** What about the “unfolding enthalpy (calorimetric)” value [17] of the same protein?
**A.** Its value is 84.7 kcal/mol.

**Q.** And the Tm (Aspergillus oryzae (strain ATCC 42149 / RIB 40), pH 7, Thermal, DSC, Potassium phosphate 0.1 M)?
**A.** The Tm was 44.4 °C.

**Q.** What about the Tm [18] of the same protein?
**A.** The Tm was 65.6 °C.

**Q.** What about the “unfolding enthalpy (calorimetric)” value [18] of the same protein?
**A.** The value was 110 kcal/mol.

**Q.** And the Tm [19]?
**A.** Its Tm is 12.4 °C.

**Q.** What about the “heat capacity change of unfolding” value [19] of the same protein?
**A.** The value was 1.59 kcal/mol/K.

**Q.** What about the “unfolding enthalpy (van 't Hoff)” value [19] of the same protein?
**A.** Its value is 39.9 kcal/mol.

**Q.** And the Tm [20]?
**A.** The Tm was 48.3 °C.

**Q.** And the “unfolding enthalpy (van 't Hoff)” value [20]?
**A.** The value was 96 kcal/mol.

**Q.** And the denaturant m value [21]?
**A.** Its denaturant m value is 1.45 kcal/mol/M.

**Q.** What about the “denaturant midpoint” value [21] of the same protein?
**A.** The value was 7.59 M.

**Q.** And the unfolding free energy [21]?
**A.** The unfolding free energy was 10.9 kcal/mol and 3.97 kcal/mol.

**Q.** What about the Tm [22] of the same protein?
**A.** The Tm was 62.8 °C.

**Q.** What about the “unfolding enthalpy (van 't Hoff)” value [22] of the same protein?
**A.** The value was 66 kcal/mol.

**Q.** And the Tm [23]?
**A.** Its Tm is 61.4 °C.

**Q.** And the “unfolding enthalpy (van 't Hoff)” value [23]?
**A.** The value was 122 kcal/mol.

**Q.** And the Tm [24]?
**A.** The Tm was 61.1 °C.

**Q.** And the “unfolding enthalpy (van 't Hoff)” value [24]?
**A.** Its value is 105 kcal/mol.

**Q.** And the unfolding free energy (Aspergillus oryzae (strain ATCC 42149 / RIB 40), pH 8, 15 °C, Urea, CD, Tris-HCl 0.1 M, NaCl 2.5 M)?
**A.** The unfolding free energy was 2.61 kcal/mol.

**Q.** What about the denaturant m value [25] of the same protein?
**A.** Its denaturant m value is 1.99 kcal/mol/M.

**Q.** And the “denaturant midpoint” value [25]?
**A.** The value was 3.1 M.

**Q.** And the Tm (Aspergillus oryzae (strain ATCC 42149 / RIB 40), pH 8, Thermal, CD, Sodium phosphate 50 mM, NaCl 25 mM, reversible: Yes)?
**A.** The Tm was 65.6 °C.

**Q.** And the “denaturant midpoint” value (Aspergillus oryzae (strain ATCC 42149 / RIB 40), pH 8.4, 23 °C, GdnHCl, Fluorescence, Tris-HCl 0.1 M)?
**A.** Its value is 2.25 M.

**Q.** And the “denaturant midpoint” value (Aspergillus oryzae (strain ATCC 42149 / RIB 40), pH 8.4, 23 °C, GdnSCN, Fluorescence, Tris-HCl 0.1 M)?
**A.** Its value is 0.75 M.

B2: Beta-glucanase wild type, K0A689 (protein)
chain: MKRVLLILVTGLFMSLFAVTSTASAQTGGSFFDPFNGYNSGFWQKADGYSNGNMFNCTWRANNVSMTSLGEMRLALTSPSYNKFDCGENRSVQTYGYGLYEVRMKPAKNTGIVSSFFTYTGPTDGTPWDEIDIEFLGKDTTKVQFNYYTNGAGNHEKIVDLGFDAANAYHTYAFDWQPNSIKWYVDGQLKHTATNQIPTTPGKIMMNLWNGTGVDEWLGSYNGVNPLYAHYDWVRYTKK
**Q.** For B2, which Tm (Bacillus tequilensis, pH 6.5, Thermal, Activity, phosphate buffer) is on record?
**A.** The Tm was 62 °C.
